Assay results published in patent US20010041346A1, “METHOD FOR ASSAYING COMPOUNDS AFFECTING SMOOTH MUSCLE CONTRACTILE STATE” (priority 1999, published 2001).

Molecular target: T1, cGK from human saphenous vein smooth muscle cell lysates (Homo sapiens, UniProt Q13976)
T1 construct: from tissue; host or cells: frozen human saphenous vein, homogenized
T1 sequence (Q13976 1-671): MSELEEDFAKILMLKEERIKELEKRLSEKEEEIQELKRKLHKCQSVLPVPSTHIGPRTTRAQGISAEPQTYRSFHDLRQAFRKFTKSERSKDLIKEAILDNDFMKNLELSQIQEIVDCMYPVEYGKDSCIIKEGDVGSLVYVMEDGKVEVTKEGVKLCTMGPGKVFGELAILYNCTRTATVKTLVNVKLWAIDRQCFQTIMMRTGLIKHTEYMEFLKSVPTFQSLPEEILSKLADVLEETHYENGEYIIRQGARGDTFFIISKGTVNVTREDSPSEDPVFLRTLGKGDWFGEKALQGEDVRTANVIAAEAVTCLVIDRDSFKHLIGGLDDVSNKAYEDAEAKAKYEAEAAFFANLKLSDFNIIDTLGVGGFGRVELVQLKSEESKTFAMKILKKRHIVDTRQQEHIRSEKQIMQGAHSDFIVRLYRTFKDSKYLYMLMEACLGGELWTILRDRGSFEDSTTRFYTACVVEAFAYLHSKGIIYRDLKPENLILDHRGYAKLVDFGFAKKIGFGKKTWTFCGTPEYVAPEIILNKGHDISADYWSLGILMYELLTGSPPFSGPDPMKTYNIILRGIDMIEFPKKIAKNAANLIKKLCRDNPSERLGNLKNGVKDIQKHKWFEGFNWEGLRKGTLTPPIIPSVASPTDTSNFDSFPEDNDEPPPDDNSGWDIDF
Experiment: GST-fusion protein binding, immunoblot for cGK
Conditions: GST pulldown, immunoblotting with anti-cGK antibody
Protocol: Lysates were centrifuged for 15 minutes at 4° C. in a microfuge, and the supernatant was incubated with 100 μl of GST or GST-fusion protein beads overnight, followed by washing in RIPA buffer containing 1% NP40, and boiling for 5 minutes in SDS sample buffer. Associated proteins were resolved by SDS-PAGE and transferred to nitrocellulose, which was blocked in PBS with 0.05% Tween 20 and 5% milk. Primary antibody incubation with rabbit polyclonal anti-human cGPK-CT (Upstate Biotechnology, Lake Placid, N.Y.) was carried out at 1:2000 dilution and rabbit polyclonal anti-MBS antibody (Berkeley Antibody Company, Richmond, Calif.) at 1:1600 dilution in blocking buffer for one hour at room temperature, followed by secondary antibody incubation with anti-rabbit horseradish peroxidase-conjugated IgG (Amersham Life Science, Arlington Heights, Ill.) at 1:500 in blocking buffer. The membranes were developed with ECL (Amersham Life Science, Arlington Heights, Ill.).
The 586 base pair cDNA insert from AL9, the 177 base pair N-terminal cGK1α truncation mutant, cGK1α1-59, the N-terminal 274 base pairs of cGKIβ, and the N-terminal 816 base pairs of cGKII were cloned into pGEX (Pharmacia Biotech, Piscataway, N.J.). GST fusion proteins were expressed in bacterial strain BL21 (Stratagene, La Jolla, Calif.) according to standard techniques. […]

B1: MBS1-690: 690 amino acid N-terminal half of MBS (protein, UniProt O14974 1-690, looked up, fragment)
chain: MKMADAKQKRNEQLKRWIGSETDLEPPVVKRQKTKVKFDDGAVFLAACSSGDTDEVLKLLHRGADINYANVDGLTALHQACIDDNVDMVKFLVENGANINQPDNEGWIPLHAAASCGYLDIAEFLIGQGAHVGAVNSEGDTPLDIAEEEAMEELLQNEVNRQGVDIEAARKEEERIMLRDARQWLNSGHINDVRHAKSGGTALHVAAAKGYTEVLKLLIQAGYDVNIKDYDGWTPLHAAAHWGKEEACRILVDNLCDMEMVNKVGQTAFDVADEDILGYLEELQKKQNLLHSEKRDKKSPLIESTANMDNNQSQKTFKNKETLIIEPEKNASRIESLEQEKVDEEEEGKKDESSCSSEEDEEDDSESEAETDKTKPLASVTNANTSSTQAAPVAVTTPTVSSGQATPTSPIKKFPTTATKISPKEEERKDESPATWRLGLRKTGSYGALAEITASKEGQKEKDTAGVTRSASSPRLSSSLDNKEKEKDSKGTRLAYVAPTIPRRLASTSDIEEKENRDSSSLRTSSSYTRRKWEDDLKKNSSVNEGSTYHKSCSFGRRQDDLISSSVPSTTSTPTVTSAAGLQKSLLSSTSTTTKITTGSSSAGTQSSTSNRLWAEDSTEKEKDSVPTAVTIPVAPTVVNAAASTTTLTTTTAGTVSSTTEVRERRRSYLTPVRDEESESQRKARSRQAR
binding of cGK from smooth muscle cell lysates: no interaction with cGK
